Assay results published in article PMC4137956.

How the values were obtained:
Assay in all cases: SPR; biotinylated SIRPα variants bound to streptavidin immobilised on a BIAcore CM5 chip, BIAcore 3000, 37°; dilutions of monomeric recombinant CD47 extracellular domain passed over; affinity from equilibrium binding
[1] = biological target: NOD mouse SIRPα + SE mutant, N-terminal domain (d1) (mouse)
[2] = biological target: NOD mouse SIRPα + SE mutant, three extracellular IgSF domains (3d) (mouse)
[3] = biological target: NOD mouse SIRPα, N-terminal domain (d1), wild type (mouse)
[4] = biological target: human SIRPα V2, three extracellular IgSF domains (3d) (human) (UniProt P78324)

Sequence of mouse CD47 IgSF domain, monomeric recombinant extracellular domain (Q61735 19-139): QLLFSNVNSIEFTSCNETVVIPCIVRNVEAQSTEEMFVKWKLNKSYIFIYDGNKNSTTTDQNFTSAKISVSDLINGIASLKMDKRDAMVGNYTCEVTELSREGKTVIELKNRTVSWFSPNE
Sequence of human CD47 IgSF domain, monomeric recombinant extracellular domain (Q08722 19-136): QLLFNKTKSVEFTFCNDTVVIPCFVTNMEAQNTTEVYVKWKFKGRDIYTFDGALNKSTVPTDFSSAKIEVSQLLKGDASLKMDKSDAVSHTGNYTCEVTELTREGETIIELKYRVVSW
Sequence of NOD mouse SIRPα, N-terminal domain (d1), wild type (mouse) (P97797 1-148): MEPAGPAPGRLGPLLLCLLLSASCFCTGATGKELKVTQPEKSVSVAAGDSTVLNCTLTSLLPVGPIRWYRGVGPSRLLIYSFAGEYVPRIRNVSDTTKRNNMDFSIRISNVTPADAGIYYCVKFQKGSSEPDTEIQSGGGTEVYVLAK

| Substance | Kd [1] | Kd [2] | Kd [3] | Kd [4] |
| --- | --- | --- | --- | --- |
| mouse CD47 IgSF domain, monomeric recombinant extracellular domain (from UniProt Q61735 19-139) (domain or fragment) | 11.8 µM | 8.6 µM | 4.7 µM | > 30 µM |
| human CD47 IgSF domain, monomeric recombinant extracellular domain (from UniProt Q08722-1 19-136) (domain or fragment) | 9.4 µM | 7.6 µM | 0.08 µM | 0.6 µM |
